8 sequences from the DeepSol protein solubility set can be followed below.

This data set in a line: soluble on expression in E. coli; label from the status in PepcDB or PDB records.
As for “MSLSSERVLSNARVVSAERVFVGSVLLRDGLIAAVDEGRSHLAGAEDLGGDYLLPGLVELHTDNLEKHMTPRPGVDWPSASAVLAHDAQIVSAGITTVFDALSIGDVNPKGKRMQQLPKMLEAIGEAAASGDARADHRLHLRCEVSHPQTLEVFRELVEHPLVQLVSVMDHAPGQRQFARLEKYREYYQGKYHLSDAEMDAFIVEQVANSERYSDAARAAIVDVCQGRGLSVASHDDATLAHVRESAGYGMAIAEFPTTVEAARASHEHGLQVLMGAPNVVRGGSHSGNVAAAQLAGIGVLDILSSDYYPASLLHAALLLAGEHSEYDAIRYDLPRAVAMVSRTPALAAGLTDRGEIRVGLRADLLQARALGNNQPVVRQVWRGGQRVFEGHHHHHH”, the “soluble on expression in E. coli” value is “soluble”. Consider “MAHVAFNLLHLPAKTLRNVFQLMSHSELFIFSFASICAKRLVKSMNFEMLELDLVYSRPCKLKISFGEHEEFIIEFDEFGTLSKQEPSDAFVFLIAYKLDIRDCINHVLEVYKISKLHTLKVIGAINNPQNLLKIIGKLDLKVLWIFFNFSENSTTISVYREILNHLGARCDVRSLRRGFYDKEPQKSFFLLRLSLSYALSQEPHSRPTATLAARRLKRRQDTQPLDATTSVLMLRSCRTVGRGTSLPTHPPFSFVIAPHYYSCTCSDIQGEPDKLQ”, for which the “soluble on expression in E. coli” value is reported as “not soluble”. Consider “MKQVCVLGNGQLGRMLRQAGEPLGIAVWPVGLDAEPAAVPFQQSVITAEIERWPETALTRQLARHPAFVNRDVFPIIADRLTQKQLFDKLHLPTAPWQLLAERSEWPAVFDRLGELAIVKRRTGGYDGRGQWRLRANETEQLPAECYGECIVEQGINFSGEVSLVGARGFDGSTVFYPLTHNLHQDGILRTSVAFPQANAQQQARAEEMLSAIMQELGYVGVMAMECFVTPQGLLINELAPRVHNSGHWTQNGASISQFELHLRAITDLPLPQPVVNNPSVMINLIGSDVNYDWLKLPLVHLHWYDKEVRPGRKVGHLNLTDSDTSRLTATLEALIPLLPPEYASGVIWAQSKFG”, for which the “soluble on expression in E. coli” value is on record as “soluble”.

As to “MFDPKKLEQIAKQIHDSMPAPVKELGADVDQKVRQVIQGQLNKLDVVSREEFDVQTQVLLRTRQKLTEMEKKLSELEEKLADK”, the “soluble on expression in E. coli” value is recorded as “not soluble”.

Consider “MSLADKVVNIGFSGPLSGGAAAYGKDTLSGLQMAVDTLNKSGGIKVGNDKVTFKVVSLDDRYLPNETATNVKRLTGQDIQFIFVPHAGGIQAVQPLAIRDPEFLLVAYSSEPKILAANNPLTFMLPPRYDNYAQPFVATEMKTFGKKLALVGTSSAYGKQWADLIESEWKKQGGTVGRDNAVDYNTTVDFSAAVTKALSEKPDVLFIGGPSQPTALVIKAAREQGFKGGFIVMDQAKFEQMETVIPKNYLDGSVGVLPTRDFPGTQSFVVQYQRAYKKIPTSEAGLNYMGMNVLAKAMELAGTTSDPRKVRAQLDAAAKALPQSKTVYKVFGVTPQATWTPSEGHHHHHH”, for which the “soluble on expression in E. coli” value is on record as “soluble”. For the sequence “MGSDKIHHHHHHMVVRGRLKGVEAEFIDFHVHMPYWIRDPVKSCRRLLLEELTAGAISAVVIGVDASLETIKSRVTPREITEAAMEDFDYLAFQQVGYIGRMIMEPEKFLDDFLGDFHKHRRGPEDLRACRSVEPRFFYTIVSYKPGMEEEVAQIVRSDSSILGVKIFPTFHFTRPDSQRLYPVYKAVEEAGGLVVVHTGCDPGPWELTRFCREARPSYVARAAKRFENLVFVIAHLGAYSALKPGIYFEETLKALSLENVYADTSAADPFFAAMAVKEGYADKILFGSDYPYVSGYNVAMAVKDILSLDIDNNDKEAVLRYNAEKLLNSLPRGRQKPG”, the “soluble on expression in E. coli” value is “not soluble”. Regarding “MGSDKIHHHHHHMINPAHFDLQSLRIFLQVAQSGSLTKAAEKFHITLSALSKRIAELERTVDCALFIRMPRGLTLTPAGKELVNLAGNVLSNVERMASEMNDYAVGVRGHVHMWANTSAIIQFLPQDLASFLPTRPLIRINLEEKLSKTVVTALAMGEADIGIFVDNVGSQGVEKIPYRKDKLVVLVPPQHPLSALSDVSFNDTLGYDYVGLNSGSSLLKQLKDASDELGRVLRLRVQVSSFDGICRMIEAGLGISVLPEGAIRPEVLGTGLRAINLTDEWASRQLWLGVKSGAILQPEVTNLLTHLRQCGA”, the “soluble on expression in E. coli” value is “not soluble”. Regarding “MGSDKIHHHHHHMKITPIAFESLGVRSQATLIETKDLRVLVDPAVSLAPRRYNLPPHQREVDRLTQLAKVLVDVAKDVDVIVVSHYHYDHHDPGYVIPTDIYKNKIVFLKDPQNMINNSQKYRRAPRFLRSIKDKPRKIEIADGKTFEFNTTTISFSPAVPHGADERLGYVIQVAISDKDSTVIFTSDIEGAPKDVHLKFTKEKMPTVIIIDGPLSYLLGRALKEEELENSIRNMEEIIKNGLETVIIDHHVLRDINYAQVLKPVHDIAKDLGVRVTTAAEYLNLEPLILEARRKELYKEDNRPAKIPRGLANLLNAGDG”, the “soluble on expression in E. coli” value was “not soluble”.
